# Results: PMC6555819, “Comprehensive study of nuclear receptor DNA binding provides a revised framework for understanding receptor specificity”
# Changes are numbered by the printed parent chain.
# B1: NRC3_wobSeed134_DR5_G11T_o1 (dsDNA)
# DNA 1: GCGCTGCTAGTTCAACTGATGGTCAGCTAAAGCTCGGCGATTGACAGCGTAGAATGAAGG
# DNA 2: CCTTCATTCTACGCTGTCAATCGCCGAGCTTTAGCTGACCATCAGTTGAACTAGCAGCGC
# B2: NRC3_random_hg19_258_o1 (dsDNA)
# DNA 1: GCGTAAGATGGCAGGTGCCCAGAGCTAAGCTTTGATGCGATTGACAGCGTAGAATGAAGG
# DNA 2: CCTTCATTCTACGCTGTCAATCGCATCAAAGCTTAGCTCTGGGCACCTGCCATCTTACGC
# B3: NRC3_random_hg19_261_o1 (dsDNA)
# DNA 1: GCCTGGCTCCAGACAGACAAGAAGACTCCTTCAGTCGCGATTGACAGCGTAGAATGAAGG
# DNA 2: CCTTCATTCTACGCTGTCAATCGCGACTGAAGGAGTCTTCTTGTCTGTCTGGAGCCAGGC
# B4: NRC3_random_hg19_287_o1 (dsDNA)
# DNA 1: GCTCACTCAGAAGAGCAGAGCGACAGTGAATCTGAGGCGATTGACAGCGTAGAATGAAGG
# DNA 2: CCTTCATTCTACGCTGTCAATCGCCTCAGATTCACTGTCGCTCTGCTCTTCTGAGTGAGC
# B5: NRC3_random_hg19_12_o1 (dsDNA)
# DNA 1: GCTTCCAGAATCAGACAATCACTGGGCTTGAACCAGGCGATTGACAGCGTAGAATGAAGG
# DNA 2: CCTTCATTCTACGCTGTCAATCGCCTGGTTCAAGCCCAGTGATTGTCTGATTCTGGAAGC
# B6: NRC3_wobSeed109_DR4_A16T_o1 (dsDNA)
# DNA 1: GCCGTCCAAGGTCATTGGAGGTCAGTGAAGACAGATGCGATTGACAGCGTAGAATGAAGG
# DNA 2: CCTTCATTCTACGCTGTCAATCGCATCTGTCTTCACTGACCTCCAATGACCTTGGACGGC
# B7: NRC3_wobSeed120_DR4_T8G_o1 (dsDNA)
# DNA 1: GCCCGAGGAGGTTACGAGGGGGCATTCAGTGCGAATGCGATTGACAGCGTAGAATGAAGG
# DNA 2: CCTTCATTCTACGCTGTCAATCGCATTCGCACTGAATGCCCCCTCGTAACCTCCTCGGGC
# B8: NRC3_wobSeed97_DR4_G16T_o1 (dsDNA)
# DNA 1: GCCAAACTAGGTCACTAAAGGTCAAAGTCGAATGACGCGATTGACAGCGTAGAATGAAGG
# DNA 2: CCTTCATTCTACGCTGTCAATCGCGTCATTCGACTTTGACCTTTAGTGACCTAGTTTGGC
# B9: NRC3_random_hg19_143_o1 (dsDNA)
# DNA 1: GCCAAGAATCAGACTCTTAAGTAGATGCCTGTAGCTGCGATTGACAGCGTAGAATGAAGG
# DNA 2: CCTTCATTCTACGCTGTCAATCGCAGCTACAGGCATCTACTTAAGAGTCTGATTCTTGGC
# B10: NRC3_wobSeed120_DR4_T8A_o1 (dsDNA)
# DNA 1: B7 DNA 1 with G8A
# DNA 2: B7 DNA 2 with C53T
# B11: NRC3_random_hg19_424_o1 (dsDNA)
# DNA 1: GCGCCTTCTCTACAGGGCATACAGACTGACATTGAGGCGATTGACAGCGTAGAATGAAGG
# DNA 2: CCTTCATTCTACGCTGTCAATCGCCTCAATGTCAGTCTGTATGCCCTGTAGAGAAGGCGC
# B12: NRC3_random_hg19_124_o1 (dsDNA)
# DNA 1: GCTCAGTTCCTCTGCAGCCAACCAGTCTTGGTGCCTGCGATTGACAGCGTAGAATGAAGG
# DNA 2: CCTTCATTCTACGCTGTCAATCGCAGGCACCAAGACTGGTTGGCTGCAGAGGAACTGAGC
# B13: NRC3_random_hg19_50_o1 (dsDNA)
# DNA 1: GCTGAAGAGTTTCTAACTCTTTGTTCTTGAATCAAAGCGATTGACAGCGTAGAATGAAGG
# DNA 2: CCTTCATTCTACGCTGTCAATCGCTTTGATTCAAGAACAAAGAGTTAGAAACTCTTCAGC
# B14: NRC3_wobSeed26_DR1_A14T_o1 (dsDNA)
# DNA 1: GCTCTAGTTGGTCTAAGGTCACACACTCGAAATGCGGCGATTGACAGCGTAGAATGAAGG
# DNA 2: CCTTCATTCTACGCTGTCAATCGCCGCATTTCGAGTGTGTGACCTTAGACCAACTAGAGC
# B15: NRC3_wobSeed122_DR5_C24G_o1 (dsDNA)
# DNA 1: GCGCTAGTTGGTCAGTAAAAGGTGACACACCGGTCGGCGATTGACAGCGTAGAATGAAGG
# DNA 2: CCTTCATTCTACGCTGTCAATCGCCGACCGGTGTGTCACCTTTTACTGACCAACTAGCGC
# B16: NRC3_random_hg19_448_o1 (dsDNA)
# DNA 1: GCAGAAGAAGACCAAAGTATTCCCTCACTGCCTATGGCGATTGACAGCGTAGAATGAAGG
# DNA 2: CCTTCATTCTACGCTGTCAATCGCCATAGGCAGTGAGGGAATACTTTGGTCTTCTTCTGC
# B17: NRC3_wobSeed29_DR1_G9A_o1 (dsDNA)
# DNA 1: GCGCTTACAGGTCAAAGGTTATAGCATGAATAGAATGCGATTGACAGCGTAGAATGAAGG
# DNA 2: CCTTCATTCTACGCTGTCAATCGCATTCTATTCATGCTATAACCTTTGACCTGTAAGCGC
# B18: NRC3_random_hg19_272_o1 (dsDNA)
# DNA 1: GCGTGCATTTGCTCCCAGAGGCTCTGCTCTTGCCCTGCGATTGACAGCGTAGAATGAAGG
# DNA 2: CCTTCATTCTACGCTGTCAATCGCAGGGCAAGAGCAGAGCCTCTGGGAGCAAATGCACGC
# B19: NRC3_random_hg19_255_o1 (dsDNA)
# DNA 1: GCGGAGGGCAGGCAGGCCTGGAGGAGCATGTGGTGTGCGATTGACAGCGTAGAATGAAGG
# DNA 2: CCTTCATTCTACGCTGTCAATCGCACACCACATGCTCCTCCAGGCCTGCCTGCCCTCCGC
# B20: NRC3_random_hg19_69_o1 (dsDNA)
# DNA 1: GCCCAGGTGGCAGGATCCCTGCATCTGGTTTCCTCAGCGATTGACAGCGTAGAATGAAGG
# DNA 2: CCTTCATTCTACGCTGTCAATCGCTGAGGAAACCAGATGCAGGGATCCTGCCACCTGGGC
# B21: NRC3_random_hg19_425_o1 (dsDNA)
# DNA 1: GCCTGTTAGGTTGATTCTATGTCTTGGCTATTGTGTGCGATTGACAGCGTAGAATGAAGG
# DNA 2: CCTTCATTCTACGCTGTCAATCGCACACAATAGCCAAGACATAGAATCAACCTAACAGGC
# B22: NRC3_random_hg19_311_o1 (dsDNA)
# DNA 1: GCTCACTTATGAAGCTTAGGTTGGCTGGATATGAAAGCGATTGACAGCGTAGAATGAAGG
# DNA 2: CCTTCATTCTACGCTGTCAATCGCTTTCATATCCAGCCAACCTAAGCTTCATAAGTGAGC
# B23: NRC3_wobSeed21_DR0_A19C_o1 (dsDNA)
# DNA 1: GCCGTCAAAGTTCAAGGTCACGTAACAGAAAGCAGCGCGATTGACAGCGTAGAATGAAGG
# DNA 2: CCTTCATTCTACGCTGTCAATCGCGCTGCTTTCTGTTACGTGACCTTGAACTTTGACGGC
# B24: NRC3_random_hg19_94_o1 (dsDNA)
# DNA 1: GCACTATCTTGTGTCTCATCTGAGACATAGATGGATGCGATTGACAGCGTAGAATGAAGG
# DNA 2: CCTTCATTCTACGCTGTCAATCGCATCCATCTATGTCTCAGATGAGACACAAGATAGTGC
# Molecular target: RXRa (Homo sapiens, UniProt P19793)
# Assay: no ligand; PBM; 180 nM; PBS pH 7.4, 2% milk, 0.02% Triton X-100, 1 mM DTT, BSA, 0.4 mg/ml salmon testes DNA
# Settings: tags: His cleaved; chain copies: 2; label: surface-attached array probe
# Chain of RXRa (P19793 whole entry): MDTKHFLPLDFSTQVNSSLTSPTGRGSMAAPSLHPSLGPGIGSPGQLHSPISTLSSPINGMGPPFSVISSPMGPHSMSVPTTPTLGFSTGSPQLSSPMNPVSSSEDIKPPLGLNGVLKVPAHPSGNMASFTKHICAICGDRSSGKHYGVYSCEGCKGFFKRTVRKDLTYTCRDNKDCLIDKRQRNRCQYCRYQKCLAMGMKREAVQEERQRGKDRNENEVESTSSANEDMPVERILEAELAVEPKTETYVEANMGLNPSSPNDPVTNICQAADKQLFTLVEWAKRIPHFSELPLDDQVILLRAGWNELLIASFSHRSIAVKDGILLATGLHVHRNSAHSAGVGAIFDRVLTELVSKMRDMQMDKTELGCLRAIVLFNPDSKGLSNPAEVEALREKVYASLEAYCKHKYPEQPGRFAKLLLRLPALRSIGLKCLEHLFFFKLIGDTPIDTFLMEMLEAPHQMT
row,Binder,binding signal
1,B1,0.29 PBM z-score against 500 random probes
2,B2,-0.61 PBM z-score against 500 random probes
3,B3,-0.45 PBM z-score against 500 random probes
4,B4,0.27 PBM z-score against 500 random probes
5,B5,-0.01 PBM z-score against 500 random probes

# Molecular target: LXRb:RXRa (Homo sapiens, UniProt P55055;P19793 full;full)
# Assay: no ligand; PBM; 270 nM : 90 nM RXRa; PBS pH 7.4, 2% milk, 0.02% Triton X-100, 1 mM DTT, BSA, 0.4 mg/ml salmon testes DNA
# Settings: tags: His kept;His cleaved; copies: 1;1; label: surface-attached array probe
# Procedure, shortened: (§1)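 For binding z-scores, the reference was random background probes on custom Agilent 4×180K protein-binding microarrays. These arrays were incubated 1 h with ligand-free nuclear receptor dimers in PBS pH 7.4, 2% milk, 0.02% Triton X-100, 1 mM DTT, 0.2 mg/mL BSA and 0.4 mg/ml salmon testes DNA. Fluorescence was scanned after antibody detection of each partner (one per run) and regression-normalized.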
# Chain of LXRb:RXRa (P55055 whole entry, chain 1 of 2): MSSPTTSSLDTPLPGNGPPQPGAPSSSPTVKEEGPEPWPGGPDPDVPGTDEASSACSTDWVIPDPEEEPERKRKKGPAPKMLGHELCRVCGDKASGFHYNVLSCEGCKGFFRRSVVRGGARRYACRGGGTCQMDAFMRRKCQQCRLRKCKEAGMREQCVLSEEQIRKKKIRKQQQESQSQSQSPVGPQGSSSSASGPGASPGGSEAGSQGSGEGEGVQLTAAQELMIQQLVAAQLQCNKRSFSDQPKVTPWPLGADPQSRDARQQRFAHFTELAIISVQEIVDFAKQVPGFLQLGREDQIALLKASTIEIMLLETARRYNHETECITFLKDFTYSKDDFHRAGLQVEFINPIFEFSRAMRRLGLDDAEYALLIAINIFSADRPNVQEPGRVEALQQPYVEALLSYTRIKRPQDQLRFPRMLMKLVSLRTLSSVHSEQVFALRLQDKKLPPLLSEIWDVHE
# Chain of LXRb:RXRa (P19793 whole entry, chain 2 of 2): as the sequence (P19793 whole entry) above
row,Binder,binding signal
1,B6,7.27 PBM z-score against 500 random probes
2,B7,7.6 PBM z-score against 500 random probes
3,B8,8.55 PBM z-score against 500 random probes

# Molecular target: RARg:RXRa (Homo sapiens, UniProt P13631;P19793 full;full)
# Assay: as above
# Settings: tags: His kept;His cleaved; copies: 1;1; label: surface-attached array probe
# Procedure, shortened: as §1
# Chain of RARg:RXRa (P13631 whole entry, chain 1 of 2): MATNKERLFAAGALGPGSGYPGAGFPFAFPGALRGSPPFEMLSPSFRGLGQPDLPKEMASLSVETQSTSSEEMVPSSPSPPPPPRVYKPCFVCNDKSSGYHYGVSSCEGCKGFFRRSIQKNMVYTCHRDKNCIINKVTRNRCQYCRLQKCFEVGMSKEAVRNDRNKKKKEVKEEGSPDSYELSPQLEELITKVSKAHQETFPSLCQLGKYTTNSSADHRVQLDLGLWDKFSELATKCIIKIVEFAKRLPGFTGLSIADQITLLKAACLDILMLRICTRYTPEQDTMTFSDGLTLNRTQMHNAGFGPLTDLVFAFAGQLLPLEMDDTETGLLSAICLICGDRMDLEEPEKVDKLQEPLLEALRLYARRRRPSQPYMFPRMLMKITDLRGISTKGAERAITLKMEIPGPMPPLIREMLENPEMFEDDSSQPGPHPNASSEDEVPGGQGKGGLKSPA
# Chain of RARg:RXRa (P19793 whole entry, chain 2 of 2): as the sequence (P19793 whole entry) above
row,Binder,binding signal
1,B9,-0.43 PBM z-score against 500 random probes
2,B10,4.2 PBM z-score against 500 random probes
3,B2,-0.94 PBM z-score against 500 random probes

# Molecular target: VDR:RXRa (Homo sapiens, UniProt P11473;P19793 full;full)
# Assay: as above
# Settings: tags: His kept;His cleaved; copies: 1;1; label: surface-attached array probe
# Procedure, shortened: as §1
# Chain of VDR:RXRa (P11473 whole entry, chain 1 of 2): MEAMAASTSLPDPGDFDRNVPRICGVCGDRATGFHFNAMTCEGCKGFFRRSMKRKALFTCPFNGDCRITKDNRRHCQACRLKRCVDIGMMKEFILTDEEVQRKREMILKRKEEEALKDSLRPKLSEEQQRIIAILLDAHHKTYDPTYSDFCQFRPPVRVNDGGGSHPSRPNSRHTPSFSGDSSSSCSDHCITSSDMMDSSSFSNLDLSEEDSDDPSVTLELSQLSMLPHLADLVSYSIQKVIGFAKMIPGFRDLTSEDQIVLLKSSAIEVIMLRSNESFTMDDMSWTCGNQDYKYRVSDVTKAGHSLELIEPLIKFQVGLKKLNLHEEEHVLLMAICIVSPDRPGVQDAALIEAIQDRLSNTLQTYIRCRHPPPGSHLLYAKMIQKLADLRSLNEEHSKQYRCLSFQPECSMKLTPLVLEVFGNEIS
# Chain of VDR:RXRa (P19793 whole entry, chain 2 of 2): as the sequence (P19793 whole entry) above
row,Binder,binding signal
1,B9,-0.44 PBM z-score against 500 random probes
2,B11,-0.21 PBM z-score against 500 random probes
3,B12,-0.13 PBM z-score against 500 random probes
4,B13,-0.07 PBM z-score against 500 random probes
5,B14,4.12 PBM z-score against 500 random probes
6,B15,0.14 PBM z-score against 500 random probes
7,B16,-0.71 PBM z-score against 500 random probes

# Molecular target: LXRa:RXRa (Homo sapiens, UniProt Q13133;P19793 full;full)
# Assay: as above
# Settings: tags: His kept;His cleaved; copies: 1;1; label: surface-attached array probe
# Procedure, shortened: as §1
# Chain of LXRa:RXRa (Q13133 whole entry, chain 1 of 2): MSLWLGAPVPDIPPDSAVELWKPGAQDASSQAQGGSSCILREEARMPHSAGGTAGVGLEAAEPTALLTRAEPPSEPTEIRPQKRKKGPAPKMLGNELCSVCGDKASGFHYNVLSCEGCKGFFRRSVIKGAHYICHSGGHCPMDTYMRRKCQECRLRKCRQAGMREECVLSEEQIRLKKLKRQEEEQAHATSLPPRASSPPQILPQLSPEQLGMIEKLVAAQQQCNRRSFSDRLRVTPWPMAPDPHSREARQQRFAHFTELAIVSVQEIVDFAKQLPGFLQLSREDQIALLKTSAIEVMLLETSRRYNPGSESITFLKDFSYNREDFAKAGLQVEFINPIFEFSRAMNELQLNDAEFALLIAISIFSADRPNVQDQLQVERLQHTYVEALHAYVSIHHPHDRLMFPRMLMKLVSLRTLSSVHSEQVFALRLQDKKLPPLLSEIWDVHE
# Chain of LXRa:RXRa (P19793 whole entry, chain 2 of 2): as the sequence (P19793 whole entry) above
row,Binder,binding signal
1,B17,6.61 PBM z-score against 500 random probes
2,B18,-0.36 PBM z-score against 500 random probes
3,B6,8.57 PBM z-score against 500 random probes
4,B9,-0.64 PBM z-score against 500 random probes
5,B1,0.25 PBM z-score against 500 random probes
6,B11,0.42 PBM z-score against 500 random probes
7,B19,-0.19 PBM z-score against 500 random probes
8,B20,-0.63 PBM z-score against 500 random probes
9,B21,0.31 PBM z-score against 500 random probes
10,B12,0.33 PBM z-score against 500 random probes
11,B13,-0.55 PBM z-score against 500 random probes
12,B14,4.12 PBM z-score against 500 random probes
13,B15,0.28 PBM z-score against 500 random probes
14,B22,0.15 PBM z-score against 500 random probes
15,B7,8.32 PBM z-score against 500 random probes
16,B10,8.13 PBM z-score against 500 random probes
17,B8,9.5 PBM z-score against 500 random probes
18,B23,6.86 PBM z-score against 500 random probes
19,B2,-1 PBM z-score against 500 random probes
20,B24,-0.69 PBM z-score against 500 random probes
21,B3,-1.08 PBM z-score against 500 random probes
22,B4,0.05 PBM z-score against 500 random probes
23,B16,-0.67 PBM z-score against 500 random probes
24,B5,-0.13 PBM z-score against 500 random probes

# Molecular target: PPARa:RXRa (Homo sapiens, UniProt Q07869;P19793 full;full)
# Assay: as above
# Settings: tags: GST kept;His cleaved; copies: 1;1; label: surface-attached array probe
# Procedure, shortened: as §1
# Chain of PPARa:RXRa (Q07869 whole entry, chain 1 of 2): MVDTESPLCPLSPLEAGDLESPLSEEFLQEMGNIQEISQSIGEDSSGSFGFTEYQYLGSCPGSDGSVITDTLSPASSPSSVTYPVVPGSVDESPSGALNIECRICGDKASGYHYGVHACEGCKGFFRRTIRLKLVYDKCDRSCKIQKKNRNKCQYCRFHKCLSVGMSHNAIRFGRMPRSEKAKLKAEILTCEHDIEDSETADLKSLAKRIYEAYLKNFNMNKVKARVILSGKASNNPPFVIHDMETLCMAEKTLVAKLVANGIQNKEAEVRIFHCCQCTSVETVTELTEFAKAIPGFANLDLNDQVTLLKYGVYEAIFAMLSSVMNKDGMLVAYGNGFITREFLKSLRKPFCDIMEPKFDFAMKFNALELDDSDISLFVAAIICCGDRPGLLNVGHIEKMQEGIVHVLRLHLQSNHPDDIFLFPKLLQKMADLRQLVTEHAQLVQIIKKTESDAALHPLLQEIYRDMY
# Chain of PPARa:RXRa (P19793 whole entry, chain 2 of 2): as the sequence (P19793 whole entry) above
row,Binder,binding signal
1,B1,0.24 PBM z-score against 500 random probes
2,B22,-0.15 PBM z-score against 500 random probes
3,B23,6.5 PBM z-score against 500 random probes
4,B24,-0.62 PBM z-score against 500 random probes
5,B16,-0.65 PBM z-score against 500 random probes

# Molecular target: FXR:RXRa (Homo sapiens, UniProt Q96RI1;P19793 full;full)
# Assay: as above
# Settings: tags: His kept;His cleaved; copies: 1;1; label: surface-attached array probe
# Procedure, shortened: as §1
# Chain of FXR:RXRa (Q96RI1 whole entry, chain 1 of 2): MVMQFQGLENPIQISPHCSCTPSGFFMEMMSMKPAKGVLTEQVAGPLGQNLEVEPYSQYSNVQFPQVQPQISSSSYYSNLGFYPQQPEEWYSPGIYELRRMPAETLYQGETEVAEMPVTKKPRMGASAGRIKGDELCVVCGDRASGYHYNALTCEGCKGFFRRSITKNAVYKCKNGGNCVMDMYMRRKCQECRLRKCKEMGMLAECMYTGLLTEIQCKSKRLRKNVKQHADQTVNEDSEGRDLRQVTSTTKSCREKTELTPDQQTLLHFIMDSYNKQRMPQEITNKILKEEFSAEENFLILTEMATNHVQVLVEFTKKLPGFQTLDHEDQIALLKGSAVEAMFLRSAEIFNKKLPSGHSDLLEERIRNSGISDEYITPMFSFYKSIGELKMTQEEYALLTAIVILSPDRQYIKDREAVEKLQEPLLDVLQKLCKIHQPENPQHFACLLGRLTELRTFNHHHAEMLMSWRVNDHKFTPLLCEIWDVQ
# Chain of FXR:RXRa (P19793 whole entry, chain 2 of 2): as the sequence (P19793 whole entry) above
row,Binder,binding signal
1,B17,8.14 PBM z-score against 500 random probes
2,B19,-0.16 PBM z-score against 500 random probes
3,B20,-0.63 PBM z-score against 500 random probes
4,B21,0.23 PBM z-score against 500 random probes
5,B23,7.82 PBM z-score against 500 random probes
6,B5,0.11 PBM z-score against 500 random probes

# Molecular target: RARb:RXRa (Homo sapiens, UniProt P10826;P19793 full;full)
# Assay: as above
# Settings: tags: His kept;His cleaved; copies: 1;1; label: surface-attached array probe
# Procedure, shortened: as §1
# Chain of RARb:RXRa (P10826 whole entry, chain 1 of 2): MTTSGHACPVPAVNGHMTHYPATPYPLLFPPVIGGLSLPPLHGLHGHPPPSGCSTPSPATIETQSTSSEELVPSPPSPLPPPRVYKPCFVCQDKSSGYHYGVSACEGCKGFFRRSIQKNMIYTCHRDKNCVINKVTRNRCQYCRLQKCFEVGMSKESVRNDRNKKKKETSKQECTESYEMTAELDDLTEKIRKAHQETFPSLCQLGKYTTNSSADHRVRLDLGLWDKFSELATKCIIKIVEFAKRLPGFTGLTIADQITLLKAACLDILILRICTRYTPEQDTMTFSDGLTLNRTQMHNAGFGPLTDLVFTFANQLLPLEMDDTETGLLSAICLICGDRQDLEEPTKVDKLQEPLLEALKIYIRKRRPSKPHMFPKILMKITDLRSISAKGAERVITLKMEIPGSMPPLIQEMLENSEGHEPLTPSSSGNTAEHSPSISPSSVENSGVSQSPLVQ
# Chain of RARb:RXRa (P19793 whole entry, chain 2 of 2): as the sequence (P19793 whole entry) above
row,Binder,binding signal
1,B18,-0.53 PBM z-score against 500 random probes
2,B23,5.98 PBM z-score against 500 random probes
3,B4,-0.16 PBM z-score against 500 random probes
4,B5,-0.1 PBM z-score against 500 random probes
